Laboratory results reported in publication PMC5655499, “Peptide array-based screening reveals a large number of proteins interacting with the ankyrin-repeat domain of the zDHHC17 S-acyltransferase” (The Journal of Biological Chemistry, 2017).

B1: CSPα 15-mer peptide (wild type) containing the zDABM [not stated] / His6-tagged AR domain (residues 51–288) of zDHHC17 [human] (parent)
chain 1: THIDDYSTWDIVKATQYGIYERCRELVEAGYDVRQPDKENVTLLHWAAINNRIDLVKYYISKGAIVDQLGGDLNSTPLHWATRQGHLSMVVQLMKYGADPSLIDGEGCSCIHLAAQFGHTSIVAYLIAKGQDVDMMDQNGMTPLMWAAYRTHSVDPTRLLLTFNVSVNLGDKYHKNTALHWAVLAGNTTVISLLLEAGANVDAQNIKGESALDLAKQRKNVWMINHLQEARQAKGYDN
chain 2: TDTPIVIQPASATET

Variants of: B1
Experiment: far-Western blotting on peptide array;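 note: PSSM score: binding signal versus wild type scaled to sum 1 per position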
Conditions: with His6-tagged AR domain (residues 51–288) of zDHHC17 [human]; ARzD17-His 500 nm in PBS-T, overnight, 4 °C

Screen value, by site and new letter:
chain 2 S11: E < 0.005; D < 0.005
chain 2 P9: I < 0.005; M < 0.005; H < 0.005; G < 0.005; C < 0.005; K < 0.005; Y < 0.005; L < 0.005; N < 0.005; F < 0.005; T < 0.005; R < 0.005; Q < 0.005; V < 0.005; S < 0.005; W < 0.005; D < 0.005; E < 0.005; A < 0.005
chain 2 P4: D < 0.005; S < 0.005; M < 0.005; K < 0.005; N < 0.005; Q < 0.005; F < 0.005; L < 0.005; Y < 0.005; R < 0.005
chain 2 I5: Y < 0.005; W < 0.005
chain 2 Q8: F < 0.005; P < 0.005; E < 0.005; L < 0.005; T < 0.005; A < 0.005; H < 0.005; K < 0.005; S < 0.005; I < 0.005; G < 0.005; Y < 0.005; D < 0.005; W < 0.005; N < 0.005; R < 0.005; V < 0.005
chain 2 I7: P < 0.005
chain 2 V6: D < 0.005; A < 0.005; G < 0.005; P < 0.005
